In patent US20230076063 one finds activity (mean SMALR native score) data, which are given here for two substances.

Assay in all cases: cell_activity
For data set [1], the system named is MamA E270A E270A (Mycobacterium tuberculosis). Particulars: SMRT sequencing kinetics; partial stochastic methylation.
The subject of data set [2] is MamA W136R W136R (Mycobacterium tuberculosis). Particulars: SMRT sequencing kinetics; methylation knockout, binding itself not measured.
The subject of data set [3] is MamA G152S G152S (Mycobacterium tuberculosis). Particulars: SMRT sequencing kinetics; partial stochastic methylation.
In data set [4] the test system is MamB K1033T K1033T (Mycobacterium tuberculosis). Particulars: SMRT sequencing kinetics; single isolate.

With “CTGGAG (double strand) [MamA target motif sites]”, the activity (mean SMALR native score) in data set [1] is 0.0558; in data set [2], -0.107; in data set [3] it was 0.766.

Consider MamB target motif sites, for which, in data set [4], the activity (mean SMALR native score) is 0.299.
